Data on seven compounds can be found in article PMC4987164 (Comparative biochemistry and physiology. Part D, Genomics & …, 2016).

pKd: −log10 of the molar value. “Also recorded” adds a separate entry of the source. Like-named read-outs stand apart in the source and are kept apart here.

Experiment [1] concerns the target T1, ESR1 ligand-binding domain (GST-ER LBD) / SRC-3 peptides (Homo sapiens, UniProt P03372).
T1 sequence (P03372 311-547 limits assumed): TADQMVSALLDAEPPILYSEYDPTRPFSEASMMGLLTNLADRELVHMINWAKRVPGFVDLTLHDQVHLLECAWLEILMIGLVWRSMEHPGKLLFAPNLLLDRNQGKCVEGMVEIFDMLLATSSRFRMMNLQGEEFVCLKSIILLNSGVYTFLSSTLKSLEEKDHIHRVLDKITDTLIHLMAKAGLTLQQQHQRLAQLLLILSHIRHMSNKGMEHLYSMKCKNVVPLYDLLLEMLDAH
Kind of experiment: TR-FRET co-activator peptide recruitment assay, SRC-3 peptides. As to conditions: all SRC-3 peptides tested; listed as BPA. It counts as biochemical. (Time-resolved FRET reads energy transfer from a long-lived donor to a nearby acceptor.)

Experiment [2] deals with T2, human estrogen receptor alpha ligand binding domain (ESR1-LBD) (Homo sapiens, UniProt P03372).
T2 sequence (P03372 311-547 limits assumed): T1 sequence (P03372 311-547 limits assumed)
Kind of experiment: Fluorescence polarization competitive ligand binding assay. As to conditions: relative binding affinity calculated from IC50, E2 set at 100%.

The target of the next experiment is T3, ESR1 (Homo sapiens, UniProt P03372).
T3 sequence (P03372 311-547 limits assumed): T1 sequence (P03372 311-547 limits assumed)
The experiment can be described thus: Direct. The following applies: read-out: binding affinity (Kd) for the ESR1–Fl-E1 complex; saturation binding curves (data not shown).

Experiment [3] deals with SRC-1 RID (Homo sapiens) (UniProt Q15788). The following applies: cited from earlier work.
Chain of SRC-1 RID (Homo sapiens) (Q15788 570-780): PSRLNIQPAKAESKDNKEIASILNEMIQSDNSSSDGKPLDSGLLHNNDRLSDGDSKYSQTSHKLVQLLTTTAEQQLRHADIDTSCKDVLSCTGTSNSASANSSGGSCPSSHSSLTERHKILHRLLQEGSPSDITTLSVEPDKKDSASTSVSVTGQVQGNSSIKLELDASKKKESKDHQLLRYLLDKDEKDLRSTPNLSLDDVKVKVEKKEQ
Experiment [4] has the same target. As to conditions: cited from earlier work. The source holds these as a separate data set.
The target of experiment [5] is ESR1 Ligand-binding domain tagged with glutathione-S-transferase (human). Kind of experiment: AlphaScreen or HTRF. For orientation: In Alpha technology, singlet oxygen from a donor bead excites a nearby acceptor bead.

Chain of ESR1 (P03372 whole entry): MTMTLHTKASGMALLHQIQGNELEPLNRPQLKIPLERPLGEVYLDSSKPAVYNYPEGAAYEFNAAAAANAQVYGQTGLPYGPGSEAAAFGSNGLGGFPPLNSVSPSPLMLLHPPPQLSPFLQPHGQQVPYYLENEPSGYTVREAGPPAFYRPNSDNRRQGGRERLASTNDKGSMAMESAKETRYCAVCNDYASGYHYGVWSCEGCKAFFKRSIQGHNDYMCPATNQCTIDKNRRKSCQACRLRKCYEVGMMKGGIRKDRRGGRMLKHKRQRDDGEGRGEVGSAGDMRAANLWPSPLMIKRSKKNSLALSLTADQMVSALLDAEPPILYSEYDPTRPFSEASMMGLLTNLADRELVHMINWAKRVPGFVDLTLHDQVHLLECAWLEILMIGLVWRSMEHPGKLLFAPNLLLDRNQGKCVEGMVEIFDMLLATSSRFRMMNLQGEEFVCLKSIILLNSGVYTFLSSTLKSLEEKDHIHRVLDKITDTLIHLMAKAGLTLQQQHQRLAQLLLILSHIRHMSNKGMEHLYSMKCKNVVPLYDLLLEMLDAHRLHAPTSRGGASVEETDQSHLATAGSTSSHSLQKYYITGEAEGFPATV

`CC(C)(c1ccc(O)cc1)c1ccc(O)cc1` [Bisphenol-A, bisphenol-A]: the “recruitment of SRC-3 peptides to ESR1 (in words)” value in experiment [1] is “failed to induce interaction of the receptor with SRC-3 peptides; also recorded: failed to recruit any of the SRC-3 peptides”. Also, in experiment [2], the RBA is reported as 0.29%.
As to `CC12CCC3c4ccc(O)cc4CCC3C1CCC2=NNC(=S)Nc1ccc2c(c1)C(=O)OC21c2ccc(O)cc2Oc2cc(O)ccc21` (stereo not shown) [Fl-E1], the pKd (as a rule, −log10 of the Kd, conventionally taken in molar units) at ESR1 is 8.64.
As to ESR1 (from UniProt P03372), the pKd was 6.98 in the experiment with SRC-1 RID (Homo sapiens) [3] and 7.68 in the experiment with SRC-1 RID (Homo sapiens) [4].
SRC-1(1) peptide: in experiment [5], the EC50 of 17β-estradiol for recruitment of the peptide was determined as 8.44 nM.
For SRC-1(2) peptide, in experiment [5], the EC50 of 17β-estradiol for recruitment of the peptide is 5.08 nM and the EC50 of bisphenol-A for recruitment of the peptide amounted to 32.3 nM.
The compound SRC-3(2) peptide came in with an EC50 of 17β-estradiol for recruitment of the peptide in experiment [5] of 7.19 nM.
The compound SRC-3(3) peptide displayed an EC50 of 17β-estradiol for recruitment of the peptide in experiment [5] of 2.74 nM.
